Patent US20170326229A1

How the values were obtained:
Experiment in all cases: ELISA, gp120 on plate
[1] = molecular target: CH505 Env w004.54 gp120 (HIV-1)
[2] = molecular target: CH505 Env w020.11 gp120 (HIV-1)
[3] = molecular target: CH505 Env w020.15 gp120 (HIV-1)
[4] = molecular target: CH505 Env w020.25 gp120 (HIV-1)
[5] = molecular target: CH505 Env w030.13 gp120 (HIV-1)
[6] = molecular target: CH505 Env w030.17 gp120 (HIV-1)
[7] = molecular target: CH505 Env w030.20 gp120 (HIV-1)
[8] = molecular target: CH505 Env w030.21 gp120 (HIV-1)
[9] = molecular target: CH505 Env w030.36 gp120 (HIV-1)
[10] = molecular target: CH505 Env w053.15 gp120 (HIV-1)
[11] = molecular target: CH505 Env w053.22 gp120 (HIV-1)
[12] = molecular target: CH505 Env w053.29 gp120 (HIV-1)
[13] = molecular target: CH505 Env w053.31 gp120 (HIV-1)
[14] = molecular target: CH505 Env w078.15 gp120 (HIV-1)
[15] = molecular target: CH505 Env w078.17 gp120 (HIV-1)
[16] = molecular target: CH505 Env w078.33 gp120 (HIV-1)
[17] = molecular target: CH505 Env w078.6 gp120 (HIV-1)
[18] = molecular target: CH505 Env w078.9 gp120 (HIV-1)
[19] = molecular target: CH505 Env w100.A13 gp120 (HIV-1)
[20] = molecular target: CH505 Env w100.B2 gp120 (HIV-1)
[21] = molecular target: CH505 Env w100.B4 gp120 (HIV-1)
[22] = molecular target: CH505 Env w136.B10 gp120 (HIV-1)
[23] = molecular target: CH505 Env w136.B2 gp120 (HIV-1)
[24] = molecular target: CH505 Env w136.B23 gp120 (HIV-1)
[25] = molecular target: CH505 Env w136.B5 gp120 (HIV-1)
[26] = molecular target: CH505 Env w160.T4 gp120 (HIV-1)
[27] = molecular target: CH505 transmitted/founder (TF) Env gp120 (HIV-1)

| Substance | log-transformed AUC [1] [log AUC] | log-transformed AUC [2] [log AUC] | log-transformed AUC [3] [log AUC] | log-transformed AUC [4] [log AUC] | log-transformed AUC [5] [log AUC] | log-transformed AUC [6] [log AUC] | log-transformed AUC [7] [log AUC] | log-transformed AUC [8] [log AUC] | log-transformed AUC [9] [log AUC] | log-transformed AUC [10] [log AUC] | log-transformed AUC [11] [log AUC] | log-transformed AUC [12] [log AUC] | log-transformed AUC [13] [log AUC] | log-transformed AUC [14] [log AUC] | log-transformed AUC [15] [log AUC] | log-transformed AUC [16] [log AUC] | log-transformed AUC [17] [log AUC] | log-transformed AUC [18] [log AUC] | log-transformed AUC [19] [log AUC] | log-transformed AUC [27] [log AUC] | further results |
| --- | --- | --- | --- | --- | --- | --- | --- | --- | --- | --- | --- | --- | --- | --- | --- | --- | --- | --- | --- | --- | --- |
| CH103 CD4 binding site broadly neutralizing antibody | 9.2 | 9.6 | 11.8 | 10.3 | 12.9 | 9.9 | 9.5 | 12.2 | 9.1 | 11.2 | 11.6 | 10.2 | 13.6 | 10.7 | 11.3 | 11.1 | 9.9 | 8.9 | 12.9 | 12.6 | log-transformed AUC [20]: 3.2 log AUC; log-transformed AUC [21]: 9.7 log AUC; log-transformed AUC [22]: 11.5 log AUC; log-transformed AUC [23]: 10.8 log AUC; log-transformed AUC [24]: 11.8 log AUC; log-transformed AUC [25]: 4.3 log AUC; log-transformed AUC [26]: 9 log AUC |
| CH103 lineage intermediate ancestor IA7 (antibody) | 2.3 | 0.1 | 8.2 | 6.4 | 4.7 | – | – | – | – | – | – | – | – | 0.7 | – | – | – | – | – | 9.2 | – |
| CH103 lineage unmutated common ancestor (UCA) (antibody) | – | – | 1.6 | 0.8 | 0.3 | – | – | – | – | – | – | – | – | – | – | – | – | – | – | 3.5 | – |
| CH103 lineage intermediate ancestor IA8 (antibody) | 0.5 | 0.9 | 4.2 | 2.4 | 2 | – | – | – | – | – | – | – | – | – | – | – | – | – | – | 5.5 | – |
| CH103 lineage intermediate ancestor IA3 (antibody) | 5.1 | 0.8 | 10.2 | 8.6 | 9 | – | – | – | – | – | 1.1 | – | – | 3 | – | – | – | – | – | 11 | – |
| CH103 lineage intermediate ancestor IA1 (antibody) | 6.2 | 1.8 | 9.9 | 8.6 | 10.5 | 5.8 | 5.7 | 11.8 | 6.7 | 9.2 | 8.8 | 8.8 | 13.4 | 10.9 | 9 | 8.2 | 3 | 6.3 | 12.6 | 10.4 | log-transformed AUC [20]: 7.3 log AUC; log-transformed AUC [21]: 13.7 log AUC; log-transformed AUC [22]: 9.2 log AUC; log-transformed AUC [23]: 13.2 log AUC; log-transformed AUC [24]: 14.4 log AUC; log-transformed AUC [25]: 9.5 log AUC; log-transformed AUC [26]: 13.6 log AUC |
| CH106 (CH103 lineage monoclonal antibody) | 8.1 | 5.4 | 10.5 | 9.4 | 11.9 | 8.2 | 7.3 | 10.9 | 8.5 | 10.1 | 9.8 | 9.7 | 13.4 | 11 | 8.7 | 9.5 | 6.7 | 8.3 | 12 | 11.3 | log-transformed AUC [20]: 7.8 log AUC; log-transformed AUC [21]: 12.6 log AUC; log-transformed AUC [22]: 9 log AUC; log-transformed AUC [23]: 12.7 log AUC; log-transformed AUC [24]: 13.3 log AUC; log-transformed AUC [25]: 10.9 log AUC; log-transformed AUC [26]: 12.3 log AUC |
| CH105 (CH103 lineage monoclonal antibody) | 8.3 | 3.6 | 10.8 | 8.2 | 10.5 | 6.7 | 7.1 | 10.6 | 7.5 | 9.4 | 9 | 8.5 | 13.5 | 10.1 | 9.5 | 8.9 | 3.8 | 6.6 | 11.4 | 11.2 | log-transformed AUC [20]: 7.5 log AUC; log-transformed AUC [21]: 11.9 log AUC; log-transformed AUC [22]: 8.5 log AUC; log-transformed AUC [23]: 12.4 log AUC; log-transformed AUC [24]: 13.7 log AUC; log-transformed AUC [25]: 10.5 log AUC; log-transformed AUC [26]: 12.2 log AUC |
| CH103 lineage intermediate ancestor IA2 (antibody) | 6.8 | 2.6 | 10.5 | 9 | 11.4 | 7 | 6.3 | 11.5 | 7.3 | 9.5 | 9.3 | 9.2 | 13.3 | 11.5 | 9.9 | 9 | 4.6 | 7.2 | 12.5 | 10.8 | log-transformed AUC [20]: 7.5 log AUC; log-transformed AUC [21]: 13.4 log AUC; log-transformed AUC [22]: 9.7 log AUC; log-transformed AUC [23]: 13.1 log AUC; log-transformed AUC [24]: 14.3 log AUC; log-transformed AUC [25]: 9.9 log AUC; log-transformed AUC [26]: 13.4 log AUC |
| CH104 (CH103 lineage monoclonal antibody) | 8.1 | 2.2 | 10.5 | 8.3 | 11.3 | 7 | 7.5 | 11.3 | 7.8 | 10.4 | 9.9 | 9.8 | 13.7 | 10.8 | 10 | 9 | 4.5 | 6.9 | 12.9 | 10.4 | log-transformed AUC [20]: 6.1 log AUC; log-transformed AUC [21]: 13.1 log AUC; log-transformed AUC [22]: 8.9 log AUC; log-transformed AUC [23]: 13.2 log AUC; log-transformed AUC [24]: 14.2 log AUC; log-transformed AUC [25]: 10.6 log AUC; log-transformed AUC [26]: 12.8 log AUC |
| CH103 lineage intermediate ancestor IA4 (antibody) | 2.8 | 0.8 | 9.1 | 7.3 | 7.4 | – | – | – | – | – | 0.2 | – | – | 1.3 | – | – | – | – | – | 10.1 | – |
| CH103 lineage intermediate ancestor IA6 (antibody) | 2.9 | 0.8 | 7.8 | 6 | 6.5 | – | – | – | – | – | – | – | – | 1 | – | – | – | – | – | 9.1 | – |
